Patent publication CN108484759A

Biological target: 鸡传染性法氏囊病病毒 B87株
Assay: cell-based or functional assay

B1: IBDV-VP2 scFv30抗体 (scFv)
scFv: AVTLDESGGGLQTPGGALSLVCKGSGFDFSSHGMAWVRQAPGKGLEWVAGIGSSSSGTAYGSAVQGRATISRDNGQSTVRLQLNNLRAEDTGTYYCAKSVGDCAYGYSCAAGGIDAWGHGTEVIVSSASGGGGSGGGGSGGGGSVLTQPSSVSANPGETVKITCSGGGGSYGWFQQKSPGSAPVTVIYNNNNRPSDIPSRFSGSKSGSTATLTITGVQAEDEAVYYCGGSEDSSAGYVGIFGAGTTLTVLG
阻断或抑制CPE的最小蛋白浓度: 4.69 µg/mL
